Consider 1 molecule from patent publication US20160115212A1.

This assay has as its target HLA class II molecules of healthy donors carrying different HLA DR alleles. Put plainly: cell-based or functional assay.

As to HSKIIIIKKGHAK [IGFBP3 169-181], the IFNγ producing CD4-positive T-cells, donor 1, after an additional round of stimulation lay within 0.09 to 0.13%; the IFNγ producing CD4-positive T-cells, donor 1, after the third stimulation fell in the range of 0.05 to 0.1%; the maximal frequency of IFNγ producing CD4^+T-cells, donor 2 amounted to 0.05%; the maximal frequency of IFNγ producing CD4^+T-cells, donor 3 is 0.07%.
